Legend:
hFc-hC3d [1] = biological target: T1, hFc-hC3d (human, UniProt P01024 1002-1303); assay: SPR (Biacore X100), hFc-hC3d captured by anti-human IgG CH2 mAb, Fab injected, 1:1 Langmuir
T1 construct: range 1002-1303; expressed in HEK293F cells, purified on Protein A; also called hFc-hC3d fusion protein; not shown: human Fc of vector pCEP4-hFc
Experimental: (§1) Surface plasmon resonance (SPR) for the measurement of kinetic and thermodynamic parameters of the binding of purified antibodies to hC3d or mC3d antigens was performed on a Biacore X100 instrument using Biacore reagents and software (GE Healthcare, Chicago, Ill.). A mouse anti-human IgG CH2 mAb was immobilized on a CM5 sensor chip using reagents and instructions supplied with the Human Antibody Capture Kit (GE Healthcare). hFc-hC3d and hFc-mC3d fusion proteins were captured at a density not exceeding 400 RU. Each sensor chip included an empty flow cell for instantaneous background depletion. All binding assays used 1×HBS-EP+ running buffer (10 mM HEPES, 150 mM NaCl, 3 mM EDTA (pH 7.4), and 0.05% (v/v) surfactant P20) and a flow rate of 30 μL/min. All of the Fabs were injected at five different concentrations (dilution factor was 2), and the lowest concentration was tested in duplicates. The sensor chips were regenerated with 3 M MgCl₂ from the Human Antibody Capture Kit without any loss of binding capacity. Calculation of association (kₒₙ) and dissociation (koff) rate constants was based on a 1:1 Langmuir binding model. The equilibrium dissociation constant (KD) was calculated from koff/kₒₙ.

hFc-mC3d [2] = biological target: T2, hFc-mC3d (mouse, UniProt P01027 1002-1303); assay: SPR, hFc-mC3d captured by anti-human IgG CH2 mAb, Fab injected
T2 construct: domain: C3d; also called hFc-mC3d fusion protein; not shown: human Fc of vector pCEP4-hFc

[3] = biological target: T3, Mouse C3b/iC3b/C3d deposited on zymosan particles (mouse, UniProt P01027 1002-1303, limits assumed); assay: flow cytometry: His-tagged Fab at 5 µg/mL on zymosan particles opsonized with 50% mouse serum, mouse anti-6xHis Alexa Fluor 488
T3 construct: also called Zymosan deposited C3b/iC3b/(C3d) mouse
Experimental: One million zymosan particles deposited with C3b/iC3b/C3d were added into one well of a V-bottom 96-well plate. Then 500 ng/100 μL of antibody was applied in each well at 37° C. for 1 h. After washing three times by phosphate buffered saline and TWEEN™ 20 (PBST), 100 μL of a 1:1000 dilution of a mouse anti-His tag mAb conjugated to ALEXA FLUOR™ 488 (Qiagen, Hilden, Germany) in 1% (w/v) bovine serum albumin (BSA)/DPBS was used to detect the antibody.
The cross reactivity of 5 μg/mL of antibodies of the invention with 6xHis tag to human, or cynomolgus, or mouse C3b/iC3b/C3d deposited on zymosan particles after incubation with 50% corresponding serum at 37° C. for 45 min was determined by flow cytometry with a secondary mouse anti-HIS mAb conjugated to ALEXA FLUOR™ 488. […] In Table 3, the relative level of affinity is shown by the number of plus or minus signs (e.g., +++=high affinity). m/h and r/h denote […], respectively, variable domains fused human constant domains; k, kappa light chain; λ, lambda light chain.

hFc-hC3d [4] = biological target: T1, hFc-hC3d; assay: Table 3, column Human C3d; rounded form of the SPR Kd on hFc-hC3d of Table 2
Experimental: as §1

hFc-mC3d [5] = biological target: T2, hFc-mC3d; assay: Table 3, column Mouse C3d; rounded form of the SPR Kd on hFc-mC3d of Table 2
Experimental: as §1

hFc-mC3d [6] = biological target: T2, hFc-mC3d; assay: SPR (Biacore X100), hFc-mC3d captured by anti-human IgG CH2 mAb, Fab injected, 1:1 Langmuir
Experimental: as §1

hFc-mC3d [7] = biological target: T2, hFc-mC3d; assay: Table 3, column Mouse C3d; the SPR Kd on hFc-mC3d of Table 2
Experimental: as §1

hFc-hC3d [8] = biological target: T1, hFc-hC3d; assay: Table 3, column Human C3d; the SPR Kd on hFc-hC3d of Table 2
Experimental: as §1

[9] = biological target: T4, Jeko1 cell line deposited C3d (human, UniProt P01024 1002-1303, limits assumed); assay: flow cytometry: Fab at 2.5 µg/mL on JeKo-1 cells opsonized with 10 µg/mL rituximab and incubated with 50% C5-depleted human serum for 2 h with 0.5 U/mL CR1 or for 24 h (C3b/iC3b decayed to C3d)
T4 construct: domain: C3d; also called human C3d on JeKo-1 cells
Experimental: FIG. 13 is a graph showing the binding activity of antibodies of the invention to different human C3 fragments. The binding of each chimeric rabbit/human Fab at 2.5 μg/mL to C3b/iC3b/(C3d), or C3d was determined by flow cytometry against JeKo-1 cells deposited with human C3 fragments after opsonization by 10 μg/mL rituximab (RTX) followed by incubation with 50% CS-depleted human serum for 2 h with or without 0.5 U/mL CR1 or 24 h. In the presence of CR1 or after treatment with serum for 24 h, most of C3 fragments had decayed from C3b/iC3b to C3d.
To deposit C3 fragments on zymosan, one hundred million of preactivated zymosan particles (Complement Technology, Inc.) were washed and then incubated with 50% pooled normal human complement serum (PNHCS) or normal BALB/c mouse or cynomolgus complement serum in 1 mL Dulbecco's phosphate-buffered saline (DPBS) at 37° C. for 1 h. For JeKo-1 cells, 10 μg/mL rituximab (RTX) was first used to opsonize cells followed by incubation with 50% CS-depleted PNHCS. To allow C3b/iC3b deposited on JeKo-1 cells to decay to C3d, the incubation time of cells with serum was prolonged to 24 h, or 0.5 U/mL CR1 (rhCD35, R&D Systems, Minneapolis, Minn.) was included during the incubation. […]

T3 sequence (P01027 1002-1303 limits assumed): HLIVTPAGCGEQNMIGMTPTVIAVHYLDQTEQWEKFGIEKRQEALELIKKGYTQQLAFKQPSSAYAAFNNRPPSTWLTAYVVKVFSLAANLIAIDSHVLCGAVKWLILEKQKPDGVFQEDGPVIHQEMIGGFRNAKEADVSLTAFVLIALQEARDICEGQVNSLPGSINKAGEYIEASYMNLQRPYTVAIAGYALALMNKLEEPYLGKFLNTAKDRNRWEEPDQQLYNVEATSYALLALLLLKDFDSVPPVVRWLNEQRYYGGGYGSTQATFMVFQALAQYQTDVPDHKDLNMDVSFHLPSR
T1 sequence (P01024 other isoform, or with tags, fused parts or gaps, form in doubt): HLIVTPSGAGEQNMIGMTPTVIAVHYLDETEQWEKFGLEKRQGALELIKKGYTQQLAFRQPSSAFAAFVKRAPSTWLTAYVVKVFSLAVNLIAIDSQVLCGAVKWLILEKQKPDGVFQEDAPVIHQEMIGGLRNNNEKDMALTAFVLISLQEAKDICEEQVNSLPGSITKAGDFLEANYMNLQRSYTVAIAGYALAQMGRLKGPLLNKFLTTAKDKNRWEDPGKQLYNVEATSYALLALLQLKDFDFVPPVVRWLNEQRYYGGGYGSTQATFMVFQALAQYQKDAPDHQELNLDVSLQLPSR
T2 sequence (P01027 other isoform, or with tags, fused parts or gaps): as the sequence (P01027 1002-1303 limits assumed) above, with C9A counted along it
T4 sequence (P01024 1002-1303 limits assumed): as the sequence (P01024 other isoform, or with tags, fused parts or gaps, form in doubt) above, with A9C counted along it

Row | Binder | Kd (hFc-hC3d [1]) | binding result (hFc-mC3d [2]) | binding result [3] | Kd (hFc-mC3d [6]) | also measured
1 | 4S04 (Fab, V domains shown, Chimeric rabbit/human Fab, kappa, with 6xHis tag) VH: QEQLKESGGRLVTPGTPLTLTCTASGFSLSTYAMIWVRQAPGKGLEYIGIISYGGSAYYASWAKGRFTISKTSTTVDLKITSPTTEDTATYFCARDRGFGYGYGIGYYGLDPWGPGTLVTVSS VL: DGVMTQTPSSTSAAVEGTVTINCQASQSIGSYLSWYQQKPGQPPKLLIYQASKMASGVPSRFKGSGSGTQFTLTISNVQGEDAATYYCLGHYVGDWSFGAGTKVEIK | 4.11 nM | – | – | – | –
2 | 3NS2 (Fab, V domains shown, Chimeric rabbit/human Fab, lambda, with 6xHis tag) VH: QSVEESGGRLVTPGTPLTLTCTVSGIDLSSYSMGWVRQAPGKGLEWIGIIYNTGRIDYANWAKGRFTISKTSTTVDLKITSPTIGDTATYFCGRGYPGDIWGPGTLVTVSS VL: DVVMTQTPSSVSAAVGGTVTIKCQASESIYSDLAWYQQKPGQRPKLLIYFASTLASGVPSRFKGSGSGTEYTLTISGVQREDAATYYCLGDYGNSWAFGAGTKVEIK | – | no binding | no binding (tested: 5 µg/mL) | – | –
3 | MN66 (Fab, V domains shown, Lambda) VH: QSVEESGGRLVTPGTPLTLTCTVSGFSLSSYAMSWVRQAPGKGLEWIGIIYPNDITYYASWAKGRFTISKTSTTVDLKITSPTTEDTATYFCARVVSWPGYTTEYYFNIWGPGTLVTISS VL: QFVLTQPQSVSGSLGQTVSMSCKCDSGNIDNYYVHWYQQHPGKAPTTVIYNDDQRPSGVPDRFSGSIDSTSNSASLTITGLLAEDEADYYCLSSVSSDNYVFGGGTQLTVTG | 0.31 nM | – | – | – | –
4 | 3N02 (Fab, V domains shown, Chimeric rabbit/human Fab (rabbit variable domains, human kappa constant domain) with 6xHis tag in SPR, zymosan ELISA and flow cytometry; also called 3N02 r/h-IgG1k) VH: QKQLVESGGRLVTPGGSLTLTCTISGIDLNTYGMTWVRQAPGKGLEYIGIIVSSGNTYYANWAQGRFTISKTSTTVDLKMTSLTASDTATYFCARGLGRAYSSGYGMDGWGPGTLVTVSS VL: DPVLTQTPSSTSAAVGGTVTIKCQASQNIYTSLAWYQQKPGQPPKLLIYGASNLASGVPSRFKGSRSGTEYTLTISGVEREDAATYYCLGSYTQIDTTFGGGTKLEIK | 13.3 nM | – | – | 97.6 nM | Kd (hFc-hC3d [4]): 13 nM; Kd (hFc-mC3d [5]): 98 nM
5 | 3N07 (Fab, V domains shown, Chimeric rabbit/human Fab, kappa, with 6xHis tag; also called Fab 3N07; 3N07 r/h-IgG1k) VH: QSLEESGGRLVTPGTPLTLTCTVSGFSLSRYTMAWVRQAPGKGLEYIGWIDSSGSTYYASWAKGRFTISKTSSTTVDLKMTSLTTEDTATYFCASGNDGGDPLYYGMDPWGPGTLVTVSS VL: DGVMTQTPSSTSAAVGGTVTIKCQASQSIRSWLSWYQQKPGQPPKLLIYEASKLASGVPSRFKGSRSGTEYTLAISGVQREDAATYYCLGSIASDDTAFGAGTNVEIK | 3.1 nM | – | – | 132 nM | Kd (hFc-mC3d [7]): 132 nM; Kd (hFc-hC3d [4]): 3.1 nM
6 | d301 (Fab, V domains shown, Chimeric rabbit/human Fab, kappa, with 6xHis tag; also called Fab d301; d301 r/h-IgG1k) VH: QSLEESGGRLVTPGTPLTLTCTVSGFSLSTYTLGWVRQAPGKGLEYIGWIDSSGSAYYASWAKGRFTISKASSTTVDLKMAGLTTEDTATYFCASGNTGGDPLYYGMDPWGPGTLVTVSS VL: DPVLTQTPSSTSAAVGGTVTIKCQASQNIGRWLAWYQQKPGQPPKLLIYRASDLASGVPSRFKGSGSGTQFTLTISGVQREDAATYYCLGSYSSSDSAFGGGTEVVVK | 0.99 nM | – | – | 22.9 nM | Kd (hFc-hC3d [8]): 0.99 nM; Kd (hFc-mC3d [5]): 23 nM
7 | 5S8 (Fab, V domains shown, Chimeric rabbit/human Fab, kappa, with 6xHis tag in SPR, zymosan and JeKo-1 assays; also called Fab 5S8; 5S8 r/h-IgG1k) VH: QSVEESGGRLVTPGTPLTLTCTVSGFSLSSYAMTWVRQAPGKGLEWIGVIGTSGMRYYANWAKGRFTISKTSTTVDLKITSPTTEDTATYFCARANFYVGNDESTDAFDPWGPGTLVTVSS VL: ALVMTQTPPSLSASVGETVRIRCLASEDIYNTISWYQQKPGKPPTLLIYGASNLKSGVPPRFSGSGSGTDYTLTIGGVQSEDAATYYCLGGYSYSSTGLTFGAGTKVEIK | 3.35 nM | – | – | 9.04 nM | Kd (hFc-hC3d [4]): 3.4 nM; Kd (hFc-mC3d [5]): 9 nM
8 | 4S12 (Fab, V domains shown, Chimeric rabbit/human Fab, lambda, with 6xHis tag) VH: QEQLVESGGRLVTPGTPLTLTCTVSGFSLSSYHMSWVRQAPGKGLEWIGIIYFTGDASYASWAKGRFTISKTSPTTVDLKITSPTTEDTATYFCARDTDWNSSRTIPFDPWGPGTLVTVSS VL: SFVLTQPASVQVNLGQTVSLTCTADTLSRTYASWYQQKPGQAPVLLIYRDTSRPSGVPDRFSGSSSGNTATLTISGAQAGDEADYYCATSDGSGSSYQYVFGGGTQLTVTG | – | no binding | no binding (tested: 5 µg/mL) | – | –
9 | 3NS3 (Fab, V domains shown, Chimeric rabbit/human Fab, lambda, with 6xHis tag) VH: QSLEESGGGLVTPGTPLTLTCTVSGIDLSAYAMTWVRQAPGKGLEWIGMISTDGATYYASWAKGRFTISKTSTTADLTITSPTTEDTATYFCARGLTNFFIWGPGTLVTISS VL: QPVLTQSPSASATLGSSAKLTCTLSSAHSTYTIAWYQQKQGESPRCLMYLKSDGSYTRGTGVPDRFSGSSSGADRYLIIPNVQADDEADYYCGADYSGGYLFGGGTQLTVTG | – | no binding | no binding (tested: 5 µg/mL) | – | –
10 | 3NS1 (Fab, V domains shown, Chimeric rabbit/human Fab, lambda, with 6xHis tag; also called 3NS1 r/h-IgG1λ) VH: QSVEESGGRLVTPGTPLTLTCTVSGFSLSNYIITWVRQAPGKGLEWIGMISTDGDTYYANWAKGRFTISKTSTTANLKITSPTTEDTATYFCARGLTNFFIWGPGTLVTVSS VL: QPVLTQSPSVSAALGASAKLTCTLSSAHKTYSIGWYQQHQGEAPRFLMQLRRDGSYTKGTGVPDHFSGSSSGADRYLIIPNVQADDEADYYCGVDYDGGYVFGGGTQLTVTG | – | no binding | no binding (tested: 5 µg/mL) | – | binding result [9]: binds
11 | 4S10 (Fab, V domains shown, Chimeric rabbit/human Fab, lambda, with 6xHis tag) VH: QSVEESRGRLVTPGTPLTLTCTVSGIDLSSSAITWVRQAPGKGLEWIGMISTDGATYYANWAKGRFTFSKTSTTADLKITSPTTEDTATYFCARGLTNFSIWGPGTLVTVSS VL: QPVLTQSPSASAALGASAKLTCTLSSAHKTYTIAWYQQQPGESPRYLMLLKSDGSYTRGPGVPDRFSGSSSGADRYLIIPSVQADDEAGYYCGADYNGGYVFGGGTQLTVTG | – | no binding | – | – | –

Source: US20230029635A1 (US Dept. of Health and Human Services, published 2023)
